These results are taken from doi:10.1101/2023.05.10.540157 (bioRxiv, 2023).

Experiment [1] has as its target T1, mineralocorticoid receptor (MR), NanoBiT fusion LgBiT-MR (UniProt P08235 1-984).
T1 sequence: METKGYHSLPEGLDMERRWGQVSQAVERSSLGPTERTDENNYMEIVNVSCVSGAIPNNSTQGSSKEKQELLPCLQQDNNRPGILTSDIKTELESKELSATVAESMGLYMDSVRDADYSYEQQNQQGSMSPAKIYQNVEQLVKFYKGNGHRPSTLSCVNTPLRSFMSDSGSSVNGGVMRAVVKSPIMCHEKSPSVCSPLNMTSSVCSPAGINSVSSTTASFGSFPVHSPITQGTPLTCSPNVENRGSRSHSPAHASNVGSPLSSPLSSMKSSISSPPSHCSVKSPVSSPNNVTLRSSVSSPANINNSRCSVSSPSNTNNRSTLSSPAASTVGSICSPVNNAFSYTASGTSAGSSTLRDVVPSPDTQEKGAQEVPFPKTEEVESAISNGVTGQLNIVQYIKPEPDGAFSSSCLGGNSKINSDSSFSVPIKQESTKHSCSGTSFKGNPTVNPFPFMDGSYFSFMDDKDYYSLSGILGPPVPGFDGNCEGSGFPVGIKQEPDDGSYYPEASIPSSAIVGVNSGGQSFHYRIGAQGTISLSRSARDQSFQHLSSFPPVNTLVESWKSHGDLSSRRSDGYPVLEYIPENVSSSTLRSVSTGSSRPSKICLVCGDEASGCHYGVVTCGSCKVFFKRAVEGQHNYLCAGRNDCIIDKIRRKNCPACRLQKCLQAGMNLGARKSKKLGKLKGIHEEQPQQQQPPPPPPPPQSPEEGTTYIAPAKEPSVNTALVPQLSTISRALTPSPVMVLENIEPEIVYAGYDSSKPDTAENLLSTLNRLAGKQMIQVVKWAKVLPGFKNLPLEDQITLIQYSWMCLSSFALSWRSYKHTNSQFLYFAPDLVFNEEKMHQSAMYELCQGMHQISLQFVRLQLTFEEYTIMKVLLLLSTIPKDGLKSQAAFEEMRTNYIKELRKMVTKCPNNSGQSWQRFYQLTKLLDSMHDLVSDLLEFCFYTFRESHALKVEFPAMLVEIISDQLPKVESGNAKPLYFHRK
As to the kind of experiment: split reporter.

The target in experiment [2] is T1, mineralocorticoid receptor (MR), …. As to the kind of experiment: split reporter. This is another data set of the same source.

Like-named read-outs stand apart in the source and are kept apart here.

B1: glucocorticoid receptor (GR), NanoBiT fusion GR-SmBiT (receptor)
chain: MDSKESLTPGREENPSSVLAQERGDVMDFYKTLRGGATVKVSASSPSLAVASQSDSKQRRLLVDFPKGSVSNAQQPDLSKAVSLSMGLYMGETETKVMGNDLGFPQQGQISLSSGETDLKLLEESIANLNRSTSVPENPKSSASTAVSAAPTEKEFPKTHSDVSSEQQHLKGQTGTNGGNVKLYTTDQSTFDILQDLEFSSGSPGKETNESPWRSDLLIDENCLLSPLAGEDDSFLLEGNSNEDCKPLILPDTKPKIKDNGDLVLSSPSNVTLPQVKTEKEDFIELCTPGVIKQEKLGTVYCQASFPGANIIGNKMSAISVHGVSTSGGQMYHYDMNTASLSQQQDQKPIFNVIPPIPVGSENWNRCQGSGDDNLTSLGTLNFPGRTVFSNGYSSPSMRPDVSSPPSSSSTATTGPPPKLCLVCSDEASGCHYGVLTCGSCKVFFKRAVEGQHNYLCAGRNDCIIDKIRRKNCPACRYRKCLQAGMNLEARKTKKKIKGIQQATTGVSQETSENPGNKTIVPATLPQLTPTLVSLLEVIEPEVLYAGYDSSVPDSTWRIMTTLNMLGGRQVIAAVKWAKAIPGFRNLHLDDQMTLLQYSWMFLMAFALGWRSYRQSSANLLCFAPDLIINEQRMTLPCMYDQCKHMLYVSSELHRLQVSYEEYLCMKTLLLLSSVPKDGLKSQELFDEIRMTYIKELGKAIVKREGNSSQNWQRFYQLTKLLDSMHEVVENLLNYCFQTFLDKTMSIEFPEMLAEIITNQIPKYSNGNIKKLLFHQK
On to B1, for which the “fold induction of NanoBiT luminescence versus solvent” value was ~6 fold in experiment [1] and ~8 fold in experiment [2].
